This sample holds only a part of the variants without activity.

The chains are these.
B1: TPR 5TU (parent)
chain: GGAUCUUCUCGAUCUAACAAAAAAGACAAAUCUGCCACAAAGCUUGAGAGCAUCUUCGGAUGCAGAGGCGGCAGCCUUCGGUGGCGCGAUAGCGCCAACGUUCUCAACUAUGACACGCAAAACGCGUGCUCCGUUGAAUGGAGUUUAUCAUG

Variants of B1 are the subject of the data set. As to the kind of experiment: polymerase ribozyme fitness, log enrichment relative to wild type (log ratio); higher = more active; in vitro selection for triplet polymerase activity. In short, it runs like this: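 For each subunit of a heterodimeric triplet polymerase ribozyme, a mutant library was built by PCR and transcribed, then taken through a single in vitro selection round in triplicate. Selection involved annealing to a biotinylated primer, the partner subunit and triplets, incubation frozen at −7 °C, gel excision of extended constructs, capture on streptavidin beads and RT-PCR. Genotypes were retained after Illumina sequencing of inputs and outputs only with ≥10 input reads and ≥1 read in each output. Fitness is defined as the logarithm of a genotype's enrichment relative to wild-type enrichment, using inverse-variance-weighted averages across replicates, with the logarithm taken to base 2.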
Regarding GGAUCUUCUCGAUCUAACAAAAAAGACAAAUCUGCCACAAAGCUUGAAAGCAUCUUCGGAUGCAGAGGCGGCAGCCUUCGUUGGCGCGAUAUCGCCAACGUUCUCAACUAUGACACGAAAAACGCGUGCUCCGUUGAAUGGAGUUUAUCAUC, the “polymerase ribozyme fitness (log ratio)” value was at most -4.2.
In the case of GGAUCUUCUCGAUCUAACAAAAAAGACAAAUCUGCCACAAAGCUUGAGAGCAUCUUCGCAUGCAGAGGCGGCAGCCUUCGGUGGCGCGAUAGCGCCAACGUUCUCAACUAUGACACACAAAACGCGUGCUCCGUUGAAUGGAGUUUAUCAUG it was 1.39; in that of GGAUCUUCUCGAUCUAACAAAAAAGACAAAUCUGCCACAAAGCUUGAGAGCAUCUUCGGAUGCAGAGGCGGCAGCCUUCGGUGGCGCGAUUGCGCCAACGUUCUCAACUAUGACACGCAAAACGCGUGCUCCGUUGAAUGUAGUUUAUCAUG, at most -4.2.
As for GGAUCUUCUCGAUCUAACAAAAAAGACAAAUCUGCCACAAAGCUUGAGAGCAUCUACGGAUGCAGAGGCGGCAGCGUUCGGUGGCGCGAUAGCGCCAACGUUCUCAACUAUGACACGCAAAACGCGUGCUCCGUUGAAUGGAGUUUAUCAUG, the figure is at most -4.2; as for GGAUCUUCUCGGUCUAACAAAAAAGACAAAUCUGCCACAAAGCUUGAGAGCAUCUUCGGAUGCAGAGGCGGCAGCCUUCGGUGGCGCGAUAGCGCCAACGUUCUCAACUAUGACACGCAAAACGCGUGCUCCGUUGAAUGGAGAUUAUCAUG, 1.44.
In the case of GGAUCUUCUCGAUCUAACAAAAAAGACAAAUCUGCCACAAAGCUUGAGAGCAUCUUCGGAUGCAGAGGCGGCAGCCUUCGGUGGCGCGAUAGCGCCAACGUUCUCCACGAUGACACGCAAAACGCGUGCUCCGUUGAAUGGAGUUUAUCAUG it was -0.424; in that of GGAUCUUCUCGAUCUAACAAAAAAGACCAAUUUGCCACAAAGCUAGAGAGCAUCUUCGGAGGCAGAGGCGGCAGCCUGCGGUGGCGCGAUACAGCCAACGGUCUCAACUAUGACACGCAAAACGCGUGCUCAGUUGAAUGGAGUUUAUCCUG, at most -4.2.
For the variant GGAUCUUCUCGAUCUAACAAAAAAGACAAAUCUGCCACAAAGCUUGAGAGCAUCUUUGGAUGCAGAGGCGGCAGCCUUCGGUGGAGCGAUAGCGCCAACGUUCUCAACUAUGACACGCAAAACGCGUGCUCCGUUGAAUGGAGUUUAUCAUG, the “polymerase ribozyme fitness (log ratio)” value is -1.63.
In the case of GGAUCUUCUCGAUCUAACAAAAAAGACAAAUCUGCCACAAACCUUGAGAGCAUCUUCGGAUGCAGAGGCGGCAGGCUUCGGUGGCGCGAUAGCGCCAACGUUCUCAACUAUGACACGCAAAACGCGUGCUCCGUUGAAUGGAGUUUAUCAUG it was at most -4.2; in that of GGAUCGUCUCGAUCUAACAAAAAAGACAAAUCUGUCACAAAGCUUGAGAGCAUCUUCGGAUGCAGAGGCGGCAGCCUUCGGUGGCGCGAUGGCGCCAGCGUUCUCAACUAUGACACGCAAAACGCGUGCUCCGUUGAAUGGAGUUUAUCAUG, -4.08.
As for GGAUCUUCUCGAUCUAACAAAAAAGACAAAUCUGCCACAAAGCUUGAGAGCAUCUUAGGAUGCAGAGGCGGCAGCCUUCGGUGGCGCGAUAGCGCCAACGUUCUCAACUAUGACACGCAAAACGCGUGCUCUGUUGAAUGGAGUUUAUCAUG, the figure is -0.393.
Take GGAUCUUCUCGAUCUAACAAAUUAGACAAAUCUGCCACAAAGCUUGAGAGCAUCUUCGGAUGCAGAGGCUGCAGCCUUCGGUGGUGCGCUAGCGCCAACGUUCUCAACUAUGACACGCAGAACGCGUGCUCCGUUGAAUGGAGAUUAUCAUG: the “polymerase ribozyme fitness (log ratio)” value is at most -4.2.
In the case of GGAUCUUCUCGAUCUAACAAAAAAGACAAAUCCGCCACAAAGCUUGAGAGCAUAAUCGGAUGCAGAGGCGGCAGCCUUCGGUAGCGCGAUAGCGCAAACGUUCUCAACUAUGACACGCAAAACGGCGGCUCCGUUGAAUGGAGUUUAUCAUG it was at most -4.2; in that of GGAUCUUCUCGAUCUAACAAAAAAGACAAAUCUGCCACAAUGCUUGAGAGUAUCUUCGGAUGCAGAGGCGGCAGCCUUCGGUGGAGCGAUAGCGCCAACGUUCUCAACUAUGACUCGCAAAACGCGUGCUCCGUUGAAUGGUGUUUAUCAUG, at most -4.2.
As for GGAUCUUCUCGAUCUAACAAAAAAGACAAAUCUGCCACAAAGCUUGAGAGCAUCUUCGGAUGCAGAGGCGGCAGCCUUCGGUGGCGCGAUAGCGCCAACGUUCUUAACUAUGACACGCAAAACGCGUGCUCCGUUGAAUGGAUUUUAUCAUG, the figure is -2.41.
In the case of GGAUCUUCUCGAUCUAACAAAAAAUACAAAUCUGCCACAAAGCUUGAGAUCAUCUUCGGAUGCAGAGGCGGCGGCCUUCGGUGGCGCGAUAGCGCCAACGGUCUCAACUAUGACACGCAAAACGCGUGCUCCGUUGAAUGGAGUUUAUCAUG it was -2.68; in that of GGAUCUUCUCGAUCUAAUAAAGAAGACAAGUCUUCCACAAAUCUUGAGAGCAUCUUCGGAUGCAGAGGCGGCAGCCAUCGGUGGCGCGAUAGCGCAAACGUUCUCAACUAUGACACGCAAAACGCGUGCUCCGUUGAAUGGAGUUUAUCAUG, at most -4.2.
As to GGAUCUUCUCGAUCUAACAAAAAAGACAAAUCUGCCACAAAGAUUGAGAGCAUUUUCGGAUGCAGAGGCGCCAGCCUUCGGUGGCGCGAUAGCGCCAACGUUUUCAACUAUGACUCUCAAAACGCGUGCUCCGUUGAAUGGAGUUUAUCAUG, the “polymerase ribozyme fitness (log ratio)” value is at most -4.2.
In the case of GGAUCUUCUCGAUCUAACAAAAAAGACAAAUCUGCCACAAAGCUUGAGAGCAUCUUCGGAUGCAGAGGCGGCAGCCUUCGGUGGCGCGAUAGCCCCAACGUUCUCAACUAUGACACGCAAAACGCGUGCUCCGUUGAAUAGAGUUUAUCAUG it was -3.95.
As for GGAUCUUCUCGAUCUAACAAAAAAGACAAAUCUGCCACAAAGCUUGAGAGCGUCUUCGGAUGCAGAGGCGGUAGCCUUCGGUGGCGCGAUAGCGCCAACGUUCUCAACUAUGACACGCAAAACGCGUGCUCCGUUGAAUGGAGUUUAUCAUG, the figure is -0.83; as for GGAUCUUCUCGAUCUAUCAAAAAAGACAAAUCUGCCACAAAGCUUGAGAGCAUCAUCGCAUGCAGAGGCGGCAGCCUUCGGUGGCGCGAUAGCUCCAACGUUCUCAACUAUGACACGCAAAACGCGUGCUCGGUUGAAUGGAGUUUAUCAUG, at most -4.2; as for GGAUCUUCUCGAUCUAACUAAAUAGACAAAUCUGCCACAAAGCUUGAGAGCAUCUUCGGAUGCAGAGGCGGCAGCCCUCGGUGGCGUGAUAGCGCCAACGUUCUCUAGUAUGACACGCAAAAGGCGUGCUCCGUUGAAUGGAGUUUAUCAUG, -4.07.
On to GGAUCUUCUCGAUCUAACAAAAAAGACAAAUCUGCCACAAAGCUUGAGAGCAUCUUCGGAUGCAGAGGCGGCAGCCUUCGGUGGCGAGAUAGCGCCAACGUUCUCAACUAUGACACGCAAAACGCCUGCUCCGUUGAAUGGAGUUUAUCAUG, for which the “polymerase ribozyme fitness (log ratio)” value is -4.16.
Regarding GGAUCUUCUCGAUCUAACAAAAAAGACAACUCUGCCACAAAGCUUGAGAGCAUCUAGGGAUGCAGAGGCGGCAGCCUUCGGUGGCGUGAUAGCGCCAACGUGCUCAACUAUGACACGCAAAACGCGUGCUCCGUUGAAUGGACUUUAUCAUG, the “polymerase ribozyme fitness (log ratio)” value was at most -4.2.
With GGAUCUUCUCGAUCUAACAAAAAAGACAAAUCUGCCACAAAGCUUGAGAGCAUCUUCGGAAGCAGAGGCGGCAGCCUUCGGUGGCGCGCUAGCGCCAACGUUCUCCACUAUGACACGCAAAACGCGUGCUCCGUUGAAUGGAGUUUAACAUG, the “polymerase ribozyme fitness (log ratio)” value is at most -4.2.
GGAUCUUCUCGAUCUAACCAAAAAGACAAAUCUGCCACAAAGCUUGAGAGCGUCUUCGGAUGCAGAGGCGGCAGCCUUCGGUGGCGCGAUAGCGCCAACGUUCUCAACUAUGACACGCAAAACGCGUGCUCCGUUGAAUGGAGUUUAUCAUG: the “polymerase ribozyme fitness (log ratio)” value is -0.125.
Consider GGAUCUUCUCGAUAUUACAAAAAAGACAAAUCUGCCACAAAGCUUGAGAGCAUCUUCGGAUGCAGAGGCGGCAGCCUUCGGUGGCAGGAUAGCGCCAACGUUCUCAACUAUGACACGCAAAACGCGUGCUCCGUUGAAUGGAGUUUAUCAUG, for which the “polymerase ribozyme fitness (log ratio)” value was -3.84.
In the case of GGAUCUUCUCGAUCUAACAAAAAAGACAAAUCUGCCACAAAGCUUGAGAGCAUCUUAGGAUGCAGAGGCGGCAGCCUUCGGUAGCGCGAUAGCGCCAACGUUCUCAACUAUGACACGCAAAACGCGUGCUCCGUUGAAUGGAGUUUAUCAUG it was -0.934; in that of GGAUCGUCUCGAUCUAACAAAAAAGACAAAUCUGCCACAAAGCUUGAGAGCAUCUUCGGAUCCAGAGGCGGCAGCCUUCGGGGGCGCGAUAGCGCCAACGUUCUCAACUAUGACACGCAAAACGCGUGCUCCGUUGAAUGGAGUUUAUCAUG, -0.631.
As for GGAUCUUCUCGAUCUAACAAAACAGACAAAUCUGCCACAAAGCUUGAGAGCAUCAUCGGAUGCAGAGGCGGCAGCCUUCGGUGGCGCGAUAGCGCCAACGUUCUCAACUAUGACACGCAAAACGCGUGCUCCGUUGAAUGGAGUUUAUCAUG, the figure is -3.85.
In the case of GGAUCUUCUCGAUGUAACAAAAUAGACAAAUCUGCCACAAUGCUUGAGAGCAUCUUCGGAUGCAGAGGCGGCAGCCUCCCUUGGCGCGAUAGCGCUAACGUUCUCAACUUUGACACGCAAAACGCGUGCUCCGUUGAAUGGAUUUUAUCAUG it was at most -4.2; in that of GGAUCUUCUCGAUCUAACAAAAAAGACAAAUCUGCCACAAUGCUUGAGAGCAUCUUCGGUUGCAGAGGCGGCAGCCUUCGGUGACGCGAUAGCGGCAACGUUCUUAACUUUGACACGCAAAACGCGUGCUCCGUUGAAUGGAGUUUAUCAUG, at most -4.2; in that of GGAUCUUCUCGAUCUAACAAAAAAGACAAAUCUGUCACAAAGCUUGAGAGCAUCUACGGAUGCAGAGGCGGCAGCCUUCGGUGGCGCGAUAGCGCCAACGUUCUCAACUAUGACACGCAAAACGCGUGCUCCGUUGAAUGGAGUUUAUCAUG, 0.225.
On to GGAUCUUCUCGAUCUAACAAAAAAGACAAAUCUGCCACAAAGCUUGAGUGCAUCUUCGGAUGCAGAGGCGGCAGACUUCGGUGGCGCGAUGGCGCCAACGUUCUCAACUAUGACACGCAAAACGCGUGCUCCGUUGAAUGGAGUUUAUCAUG, for which the “polymerase ribozyme fitness (log ratio)” value was -4.15.
With GGAUCUUCUCGAUCUAACAAAAAAGACAAAUCUGCCACAAAGCUUGAGAGCAUCUUCGGAUGCAGAGGCGGCAGCCUUCGGUGGCGCGAUAGCGCCAACGUUCUCAACUAUGACACGCAAAACGCGCGCUCCGUUGAAUGGAGUUUAUCAUG, the “polymerase ribozyme fitness (log ratio)” value was -1.3.
In the case of GGAUCUUCUCGAUCUAACAAAAAAGACGAAUCUGCCACAAAUCUUGAGAGCAUCUUCGGAUGCAGAGGCGGCAGCCUUCGGUGGCGCAAUAGUGCCAACGUUCUCAACUAUGACACGAAAAACGCGUGCUCCGUUGAAUGGAGUUUAUCAUG it was at most -4.2; in that of GGAUCUUCUCGAUCUAACAAAAAAGACAAAUCUGCCACAAAGCUUGAGAGCAUCUUCGGAUGCAGAGGCGGCAGCCUUCGGUGGCGCGAUAGCGCCAACGUUAUCAACUAUGACACGCAAAACGCGUGCUCCGUUGAACGGAGUUUAUCAUG, -3.89.
As for GGAUCUUCUCGAUCUAACAAAAAAGACAAAUCUGCCACAAAGCUUGAGAGCAUCUUCGGAUGCAGAGGCGGCAGCCUUCGGUAGCGCGAUAUCGCAAACGUUCUCAACUAUGACACGCAAAACGCGUGCUCCGUUGAAUGGAGUUUCUCAUG, the figure is -3.05.

The values above are taken from the RNAGym collection of RNA variant scans (doi:10.1073/pnas.2313332121).
